These results are taken from IntAct's records for PubMed 16127465.

B1: Growth/differentiation factor 5 (Homo sapiens), P43026 (parent)
chain: MRLPKLLTFLLWYLAWLDLEFICTVLGAPDLGQRPQGTRPGLAKAEAKERPPLARNVFRPGGHSYGGGATNANARAKGGTGQTGGLTQPKKDEPKKLPPRPGGPEPKPGHPPQTRQATARTVTPKGQLPGGKAPPKAGSVPSSFLLKKAREPGPPREPKEPFRPPPITPHEYMLSLYRTLSDADRKGGNSSVKLEAGLANTITSFIDKGQDDRGPVVRKQRYVFDISALEKDGLLGAELRILRKKPSDTAKPAAPGGGRAAQLKLSSCPSGRQPAALLDVRSVPGLDGSGWEVFDIWKLFRNFKNSAQLCLELEAWERGRAVDLRGLGFDRAARQVHEKALFLVFGRTKKRDLFFNEIKARSGQDDKTVYEYLFSQRRKRRAPLATRQGKRPSKNLKARCSRKALHVNFKDMGWDDWIIAPLEYEAFHCEGLCEFPLRSHLEPTNHAVIQTLMNSMDPESTPPTCCVPTRLSPISILFIDSANNVVYKQYEDMVVESCGCR

In the first test the parent is B1. Conditions: with bmr1b_human BMPR1B.
L441P: the “effect of a mutation on the interaction” value is reported as “decreasing interaction strength”.

A further test covers variants of B1. Conditions: with bmr1a_human BMPR1A.
Take R438L: the “effect of a mutation on the interaction” value was “increasing interaction strength”.
